Laboratory results published in patent US11814435B2, “Therapeutic antibodies and their uses” (PFIZER INC., priority 2015, dated 2023).

How the values were obtained:
cyBCMA = experiment: Kinetics and affinity of cyBCMA/human IgG interactions by SPR (Bio-Rad Proteon XPR36); type: binding, cynomolgus; details: 37° C.
hBCMA (human BCMA) = target: T1, hBCMA (human BCMA) (Homo sapiens, UniProt Q02223); experiment: Kinetics and affinity of hBCMA/human IgG interactions by SPR (Bio-Rad Proteon XPR36); type: binding; details: huBCMA, 37° C.
T1 sequence (Q02223 1-184): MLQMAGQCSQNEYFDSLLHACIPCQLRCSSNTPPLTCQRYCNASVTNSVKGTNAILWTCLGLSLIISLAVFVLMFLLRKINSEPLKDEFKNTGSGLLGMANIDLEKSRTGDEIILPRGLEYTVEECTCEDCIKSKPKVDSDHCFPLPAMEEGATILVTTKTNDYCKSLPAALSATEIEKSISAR
Description: All experiments were performed on a Bio-Rad Proteon XPR36 surface Plasmon resonance biosensor (Bio-Rad, Hercules, Calif.). An array of anti-BCMA antibodies was prepared using an amine-coupling method on a Bio-Rad GLC Sensor Chip similar to that described in Abdiche, et al., Anal. Biochem. 411, 139-151 (2011). The analysis temperature for the immobilization was 25° C. and the running buffer was HBS-T+(10 mM HEPES, 150 mM NaCl, 0.05% Tween-20, pH 7.4). Channels were activated in the analyte (horizontal) direction by injecting a mixture of 1 mM ECD and 0.25 mM NHS for 3 minutes at a flow rate of 30 μL/min. IgGs were immobilized on the activated spots by injecting them in the ligand (vertical) direction at 20 μg/mL in 10 mM Acetate pH 4.5 buffer for 1.5 minutes at […]. The activated surfaces were blocked by injecting 1M ethanolamine, pH 8.5 in the analyte direction for 3 minutes at 30 μL/min.
The analysis temperature for the hBCMA binding analysis was 37° C. or 25° C. in a running buffer of HBS-T+, supplemented with 1 mg/mL BSA. A kinetic titration method was employed for the interaction analysis as described in Abdiche, et al. The hBCMA (human BCMA) analyte was injected in the analyte direction using a series of injections from low to high concentration. The concentrations used were 0.08 nM, 0.4 nM, 2 nM, 10 nM and 50 nM (a 5-membered series, with a 5-fold dilution factor and top concentration of 50 nM). The association time for a given analyte dilution was two minutes. Immediately after the 50 nM hBCMA injection, dissociation was monitored for 2 hours. Prior to the hBCMA analyte injections, buffer was injected 5 times using the same association and dissociation times at the hBCMA analyte cycles to prepare a buffer blank sensorgram for double-referencing purposes (double referencing as described in Myszka, J. Mol. Recognit. 12, 279-284 (1999).
The sensorgrams were double-referenced and fit to a 1:1 Langmuir with mass transport kinetic titration model in BIAevaluation Software version 4.1.1 (GE Lifesciences, Piscataway, N.J.). The sensorgrams and fits are shown in FIG. 1, and the kinetics and affinity parameters for various anti-BCMA antibodies of the present invention are shown in Tables 6A-6C.

Molecule | ka (1/Ms) cyBCMA @ 37° C. (cyBCMA) | kd (1/s) cyBCMA @37° C. (cyBCMA) | ka (1/Ms) huBCMA @ 37° C. (hBCMA (human BCMA)) | kd (1/s) huBCMA @37° C. (hBCMA (human BCMA))
L3.PY/L1.PS/H2.QR: anti-BCMA antibody (antibody, V domains shown) VH: EVQLLESGGGLVQPGGSLRLSCAASGFTFGSYAMTWVRQAPGKGLEWVSAISGSGGNTFYADQRKGRFTISRDNSKNTLYLQMNSLRAEDTAVYYCARVSPIASGMDYWGQGTLVTVSS VL: EIVLTQSPGTLSLSPGERATLSCRASQSVSSSYPSWYQQKPGQAPRLLIYGASSRATGIPDRFSGSGSGTDFTLTISRLEPEDFAVYYCQHYPYPPSFTFGQGTKVEIK | 525000 M⁻¹ s⁻¹ | 0.00067 s⁻¹ | 3.97e+06 M⁻¹ s⁻¹ | 0.103 s⁻¹
L3.PY/L1.PS/H3.TAQ: anti-BCMA antibody (antibody, V domains shown) VH: EVQLLESGGGLVQPGGSLRLSCAASGFTFGSYAMTWVRQAPGKGLEWVSAISGSGGNTFYADSVKGRFTISRDNSKNTLYLQMNSLRAEDTAVYYCTRVSPIAAQMDYWGQGTLVTVSS VL: EIVLTQSPGTLSLSPGERATLSCRASQSVSSSYPSWYQQKPGQAPRLLIYGASSRATGIPDRFSGSGSGTDFTLTISRLEPEDFAVYYCQHYPYPPSFTFGQGTKVEIK | 2.58e+06 M⁻¹ s⁻¹ | 0.00552 s⁻¹ | 3.25e+06 M⁻¹ s⁻¹ | 0.00246 s⁻¹
L3.PY/L1.AH/H2.YQ: anti-BCMA antibody (antibody, V domains shown) VH: EVQLLESGGGLVQPGGSLRLSCAASGFTFGSYAMTWVRQAPGKGLEWVSAISYQGGNTFYADSVKGRFTISRDNSKNTLYLQMNSLRAEDTAVYYCARVSPIASGMDYWGQGTLVTVSS VL: EIVLTQSPGTLSLSPGERATLSCRASQSVSAHYLAWYQQKPGQAPRLLIYGASSRATGIPDRFSGSGSGTDFTLTISRLEPEDFAVYYCQHYPYPPSFTFGQGTKVEIK | 1.58e+06 M⁻¹ s⁻¹ | 0.00431 s⁻¹ | 2.42e+06 M⁻¹ s⁻¹ | 0.00193 s⁻¹
L3.PY/L1.PS/H3.AE: anti-BCMA antibody (antibody, V domains shown) VH: EVQLLESGGGLVQPGGSLRLSCAASGFTFGSYAMTWVRQAPGKGLEWVSAISGSGGNTFYADSVKGRFTISRDNSKNTLYLQMNSLRAEDTAVYYCARVSPIAAEMDYWGQGTLVTVSS VL: EIVLTQSPGTLSLSPGERATLSCRASQSVSSSYPSWYQQKPGQAPRLLIYGASSRATGIPDRFSGSGSGTDFTLTISRLEPEDFAVYYCQHYPYPPSFTFGQGTKVEIK | 2.46e+06 M⁻¹ s⁻¹ | 0.00413 s⁻¹ | 3.14e+06 M⁻¹ s⁻¹ | 0.00146 s⁻¹
L3.PY/L1.AH/H2.QR: anti-BCMA antibody (antibody, V domains shown) VH: EVQLLESGGGLVQPGGSLRLSCAASGFTFGSYAMTWVRQAPGKGLEWVSAISGSGGNTFYADQRKGRFTISRDNSKNTLYLQMNSLRAEDTAVYYCARVSPIASGMDYWGQGTLVTVSS VL: EIVLTQSPGTLSLSPGERATLSCRASQSVSAHYLAWYQQKPGQAPRLLIYGASSRATGIPDRFSGSGSGTDFTLTISRLEPEDFAVYYCQHYPYPPSFTFGQGTKVEIK | 2.2e+06 M⁻¹ s⁻¹ | 0.00491 s⁻¹ | 3.13e+06 M⁻¹ s⁻¹ | 0.00181 s⁻¹
L3.PY/L1.PS/H2.QL: anti-BCMA antibody (antibody, V domains shown) VH: EVQLLESGGGLVQPGGSLRLSCAASGFTFGSYAMTWVRQAPGKGLEWVSAISGSGGNTFYADQLKGRFTISRDNSKNTLYLQMNSLRAEDTAVYYCARVSPIASGMDYWGQGTLVTVSS VL: EIVLTQSPGTLSLSPGERATLSCRASQSVSSSYPSWYQQKPGQAPRLLIYGASSRATGIPDRFSGSGSGTDFTLTISRLEPEDFAVYYCQHYPYPPSFTFGQGTKVEIK | 657000 M⁻¹ s⁻¹ | 0.000636 s⁻¹ | 1.52e+07 M⁻¹ s⁻¹ | 0.314 s⁻¹
L3.PY/L1.PS/H2.DY: anti-BCMA antibody (antibody, V domains shown) VH: EVQLLESGGGLVQPGGSLRLSCAASGFTFGSYAMTWVRQAPGKGLEWVSAIDYSGGNTFYADSVKGRFTISRDNSKNTLYLQMNSLRAEDTAVYYCARVSPIASGMDYWGQGTLVTVSS VL: EIVLTQSPGTLSLSPGERATLSCRASQSVSSSYPSWYQQKPGQAPRLLIYGASSRATGIPDRFSGSGSGTDFTLTISRLEPEDFAVYYCQHYPYPPSFTFGQGTKVEIK | 1.9e+06 M⁻¹ s⁻¹ | 0.00378 s⁻¹ | 3.22e+06 M⁻¹ s⁻¹ | 0.00361 s⁻¹
L3.PY/L1.PS/H2.HA: anti-BCMA antibody (antibody, V domains shown) VH: EVQLLESGGGLVQPGGSLRLSCAASGFTFGSYAMTWVRQAPGKGLEWVSAISHAGGNTFYADSVKGRFTISRDNSKNTLYLQMNSLRAEDTAVYYCARVSPIASGMDYWGQGTLVTVSS VL: EIVLTQSPGTLSLSPGERATLSCRASQSVSSSYPSWYQQKPGQAPRLLIYGASSRATGIPDRFSGSGSGTDFTLTISRLEPEDFAVYYCQHYPYPPSFTFGQGTKVEIK | 1.45e+06 M⁻¹ s⁻¹ | 0.00269 s⁻¹ | 3.3e+06 M⁻¹ s⁻¹ | 0.0106 s⁻¹
L3.PY/L1.PS/H2.YQ: anti-BCMA antibody (antibody, V domains shown) VH: EVQLLESGGGLVQPGGSLRLSCAASGFTFGSYAMTWVRQAPGKGLEWVSAISYQGGNTFYADSVKGRFTISRDNSKNTLYLQMNSLRAEDTAVYYCARVSPIASGMDYWGQGTLVTVSS VL: EIVLTQSPGTLSLSPGERATLSCRASQSVSSSYPSWYQQKPGQAPRLLIYGASSRATGIPDRFSGSGSGTDFTLTISRLEPEDFAVYYCQHYPYPPSFTFGQGTKVEIK | 2e+06 M⁻¹ s⁻¹ | 0.00374 s⁻¹ | 3.35e+06 M⁻¹ s⁻¹ | 0.0043 s⁻¹
L3.PY/L1.PS/H2.LT: anti-BCMA antibody (antibody, V domains shown) VH: EVQLLESGGGLVQPGGSLRLSCAASGFTFGSYAMTWVRQAPGKGLEWVSAISLTGGNTFYADSVKGRFTISRDNSKNTLYLQMNSLRAEDTAVYYCARVSPIASGMDYWGQGTLVTVSS VL: EIVLTQSPGTLSLSPGERATLSCRASQSVSSSYPSWYQQKPGQAPRLLIYGASSRATGIPDRFSGSGSGTDFTLTISRLEPEDFAVYYCQHYPYPPSFTFGQGTKVEIK | 2.17e+06 M⁻¹ s⁻¹ | 0.00411 s⁻¹ | 3.4e+06 M⁻¹ s⁻¹ | 0.00465 s⁻¹
L3.PY/L1.AH/H2.DY: anti-BCMA antibody (antibody, V domains shown) VH: EVQLLESGGGLVQPGGSLRLSCAASGFTFGSYAMTWVRQAPGKGLEWVSAIDYSGGNTFYADSVKGRFTISRDNSKNTLYLQMNSLRAEDTAVYYCARVSPIASGMDYWGQGTLVTVSS VL: EIVLTQSPGTLSLSPGERATLSCRASQSVSAHYLAWYQQKPGQAPRLLIYGASSRATGIPDRFSGSGSGTDFTLTISRLEPEDFAVYYCQHYPYPPSFTFGQGTKVEIK | 2.32e+06 M⁻¹ s⁻¹ | 0.00451 s⁻¹ | 3.05e+06 M⁻¹ s⁻¹ | 0.00152 s⁻¹
L3.PY/L1.PS/H3.YA: anti-BCMA antibody (antibody, V domains shown) VH: EVQLLESGGGLVQPGGSLRLSCAASGFTFGSYAMTWVRQAPGKGLEWVSAISGSGGNTFYADSVKGRFTISRDNSKNTLYLQMNSLRAEDTAVYYCARVSPIYAGMDYWGQGTLVTVSS VL: EIVLTQSPGTLSLSPGERATLSCRASQSVSSSYPSWYQQKPGQAPRLLIYGASSRATGIPDRFSGSGSGTDFTLTISRLEPEDFAVYYCQHYPYPPSFTFGQGTKVEIK | 1.77e+06 M⁻¹ s⁻¹ | 0.00998 s⁻¹ | 3.07e+06 M⁻¹ s⁻¹ | 0.00905 s⁻¹
